Laboratory results taken from IntAct's records for PubMed 23123112.

B1: Protein SLM4 (Saccharomyces cerevisiae), P38247 (parent)
chain: MVMLHSKNVKGFLENTLKPYDLHSVDFKTSSLQSSMIITATNGGILSYATSNNDVPKNSINEINSVNNLKMMSLLIKDKWSEDENDTEEQHSNSCYPVEIDSFKTKIYTYEMEDLHTCVAQIPNSDLLLLFIAEGSFPYGLLVIKIERAMRELTDLFGYKLG
partner: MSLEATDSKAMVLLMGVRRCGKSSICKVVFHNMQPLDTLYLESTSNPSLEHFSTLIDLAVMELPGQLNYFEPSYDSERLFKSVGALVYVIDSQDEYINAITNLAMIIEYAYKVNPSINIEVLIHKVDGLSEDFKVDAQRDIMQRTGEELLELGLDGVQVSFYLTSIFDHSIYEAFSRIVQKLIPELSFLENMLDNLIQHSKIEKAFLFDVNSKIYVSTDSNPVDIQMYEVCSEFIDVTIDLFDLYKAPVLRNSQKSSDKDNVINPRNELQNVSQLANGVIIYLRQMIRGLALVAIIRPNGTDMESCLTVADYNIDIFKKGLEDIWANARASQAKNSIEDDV
B2: Protein SLM4 (Saccharomyces cerevisiae), P38247 (parent)
chain: B1 chain
partner: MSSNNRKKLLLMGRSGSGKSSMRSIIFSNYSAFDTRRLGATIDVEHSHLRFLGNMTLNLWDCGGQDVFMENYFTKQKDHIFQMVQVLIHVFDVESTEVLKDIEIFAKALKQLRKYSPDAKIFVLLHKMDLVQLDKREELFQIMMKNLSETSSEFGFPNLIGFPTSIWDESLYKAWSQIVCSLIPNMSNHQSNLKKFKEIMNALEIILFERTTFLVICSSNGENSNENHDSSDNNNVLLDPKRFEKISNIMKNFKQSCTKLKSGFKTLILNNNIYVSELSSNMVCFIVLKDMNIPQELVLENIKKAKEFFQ

Variants of: B1
Conditions: with ragcd_yeast GTR2, P53290

| Variant | effect of a mutation on the interaction |
| --- | --- |
| MVMLHSKNVKGFLENTLKPYDLHSVDFKTSSLQSSMIITATNGGILSYATSNNDVPKNSINEINSVAALAAMSLLIKDKWSEDENDTEEQHSNSCYPVEIDSFKTKIYTYEMEDLHTCVAQIPNSDLLLLFIAEGSFPYGLLVIKIERAMRELTDLFGYKLG | decreasing interaction strength |

Variants of: B2
Conditions: with ragab_yeast GTR1, Q00582

| Variant | effect of a mutation on the interaction |
| --- | --- |
| MVMLHSKNVKGFLENTLKPYDLHSVDFKTSSLQSSMIITATNGGILSYATSNNDVPKNSINEINSVAALAAMSLLIKDKWSEDENDTEEQHSNSCYPVEIDSFKTKIYTYEMEDLHTCVAQIPNSDLLLLFIAEGSFPYGLLVIKIERAMRELTDLFGYKLG | decreasing interaction strength |
